According to the supplement of paper PMC10201428:
± gives the standard deviation of the averaged measurements.

Test system: VchCAST RNA-guided transposition machinery (E. coli BL21(DE3) host, lacZ target)
Experiment: relative integration efficiency (T-LR orientation) vs wild-type transposon end (log2 (normalized fold change)); transposon end mutated: right end (5 bp flank + 75 bp right end); higher = more efficient transposition
In short: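 A T7-driven effector plasmid encoding a CRISPR array, tniQ-cas8-cas7-cas6 and tnsA-tnsB-tnsC was co-transformed into E. coli BL21(DE3) together with a pUC57 mini-transposon donor holding barcoded pools of 1549 left-end or 1849 right-end variants. Transformants were plated with 0.1 mM IPTG at 37°C for 18 h. Illumina sequencing of PCR-amplified input plasmids and genomic integration junctions gave barcode abundances, and relative integration efficiency is their output/input fold change, normalised to reference barcodes and log-transformed.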

Row | Sequence | relative integration efficiency (log2)
1 | ACATTTGTTGATACAACCATAAAATGATAATTACACCCATAAATTGATAATTATCACACCCATAAATTGATATTGCCTCTCAGACCACATAGCTGCCATGTCCTGATCGGACGGACCGCACCGACAC | 0.624 ± 0.19
2 | ACATTGGTGGATACAACCATAAAATGATAATTACACCCATAAATTCATCATTATCACACCCAATTTAACTATAACGCTCTGATCATAGTCAGACCAACATTGCTACGACCCGTATTCGCACCGACAC | -4.79 ± 0.16
3 | ACATTTGTGGATACAACCATAAAATGATAATTACACCCATAAATTCATAATTATCACACCCAATTTAACTATAACGCTCTGATCATAGTCAGACCAACATTGCTACGACCCGTATTCGCACCGACAC | 0.877 ± 0.27
4 | ACATTAGTCGATACAACCATAAAATGATAATTACACCCATAAATGGATAATTATCACACCCAATTTAACTATAACGCTCTGATCATAGTCAGACCAACATTGCTACGACCCGTATTCGCACCGACAC | -5.29 ± 1.4
5 | ACATTTGTTGATACAACCATAAAAGGATAATTACCCCCATAAATTGATAATTATCCCACCCCATTTAACTATAACGCTCTGATCATAGTCAGACCAACATTGCTACGACCCGTATTCGCACCGACAC | 1.78 ± 0.039
6 | ACATTTGTTGATACAACCATAAAAGGATCATTACACCCATAAATTGATAATTATCACACCCAATTTAACTATAACGCTCTGATCATAGTCAGACCAACATTGCTACGACCCGTATTCGCACCGACAC | 1.34 ± 0.27
7 | ACATTTGTTGATACAACCATAAAATGATAATTACACGGTAAAATTGATAATTATCACACCCATAAATTGATATTGCCTCTGATCATAGTCAGACCAACATTGCTACGACCCGTATTCGCACCGACAC | -2.29 ± 0.055
8 | ACATTTGTTGATACAACCAGCCCCTGATAATTACACCCAGCCCGTGATAATTATCACACCCAGCCCGTGATATTGCCTCTGATCATAGTCAGACCAACATTGCTACGACCCGTATTCGCACCGACAC | -4.67 ± 2
9 | ACATTTGTTGATACAACCATAAAAGGATCATTACACCCATCAATTGATAATTATCCCACCCAATTTAACTATAACGCTCTGATCATAGTCAGACCAACATTGCTACGACCCGTATTCGCACCGACAC | 0.119 ± 0.061
10 | ACATTTGTCGATCCAACCATAAAATGATAATTACACCCATAAATTCATCATTATCACACCCAATTTAACTATAACGCTCTGATCATAGTCAGACCAACATTGCTACGACCCGTATTCGCACCGACAC | 1.38 ± 0.015
11 | ACATTTGTTGATACAACCATAAAATGATCATTACACCCATAAATTGATAATTATCACACCCCATTTAACTATAACGCTCTGATCATAGTCAGACCAACATTGCTACGACCCGTATTCGCACCGACAC | 1.74 ± 0.078
12 | ACATTTGTTGATACAACCATAAGTTGATATTTTCAACCATAAGTTGATATTTTTCAGTGGGTATTTAACTATAACGCTCTGATCATAGTCAGACCAACATTGCTACGACCCGTATTCGCACCGACAC | 2.85 ± 0.1
13 | ACATTTGAAGATACAACCATAAAATGATAATTACACCCATAAATTGATAATTATCACACCCATAAATTGATATTGCCTCTGATCATAGTCAGACCAACATTGCTACGACCCGTATTCGCACCGACAC | -0.786 ± 0.12
14 | ACATTTGTTGATACAACCATAAAATGAATTAATCACCCATAAATTGAATTAATTCACACCCATAAATTGAATAACGCTCTGATCATAGTCAGACCAACATTGCTACGACCCGTATTCGCACCGACAC | -1.25 ± 0.054
15 | ACATTTGTTGATACAACCATAAGTTGATATTTTCAACCATAAGTTGATATTTTTCACAACCATAAAGTGATATTTACTCTGATCATAGTCAGACCAACATTGCTACGACCCGTATTCGCACCGACAC | -0.145 ± 0.024
16 | ACATTTGTTGATACAACCATAAAATGATAATTACTCTGATCATAGTCACACCCATAAATTGATAATTATCACACCCATAAATTGATATTGCGACCAACATTGCTACGACCCGTATTCGCACCGACAC | -1.68 ± 0.39

Row | Sequence | relative integration efficiency (log2)
17 | ACATTTGTTGATACAACCATAAAATGATAATTACACCCATAAATTGAGCCGGCGACACAAACGCCCGGTCGCGGTAAGAGGATCATAGTCAGACCAACATTGCTACGACCCGTATTCGCACCGACAC | 1.83 ± 0.037
18 | ACATTTGTTGATACAACCATAAAATGATAATTACACCCATAAATTGAATATTATCACACCCATAAATTGATATTGCCTCTGATCATAGTCAGACCAACATTGCTACGACCCGTATTCGCACCGACAC | -0.409 ± 0.19
19 | ACATTTGTTGATACAACCATAAAATGATAATTACACCCATAAATGGATCATTATCACACCCAATTTAACTATAACGCTCTGATCATAGTCAGACCAACATTGCTACGACCCGTATTCGCACCGACAC | 1.07 ± 0.2
20 | ACATTTGTTGATACAACCCTAAAATGATAATTACACCCATAAATGGATAATTATCACCCCCAATTTAACTATAACGCTCTGATCATAGTCAGACCAACATTGCTACGACCCGTATTCGCACCGACAC | -0.791 ± 0.11
21 | ACATTTGTTGATACAACCATAAAAGGATAATTACCCCCATCAATTGATAATTATCCCACCCAATTTAACTATAACGCTCTGATCATAGTCAGACCAACATTGCTACGACCCGTATTCGCACCGACAC | 1.91 ± 0.034
22 | ACATTTGTTGATACAAAAATAAAATGATAATTACACCCATAAATTGATAATTATCACACCCATAAATTGATATTGCCTCTGATCATAGTCAGACCAACATTGCTACGACCCGTATTCGCACCGACAC | -0.268 ± 0.48
23 | ACATTTGTTCATCCAACCATAAAATGATAATTACACCCATAAATTGATAATTATCACACCCAATTTAACTATAACGCTCTGATCATAGTCAGACCAACATTGCTACGACCCGTATTCGCACCGACAC | 0.451 ± 0.23
24 | ACATTTGGTGATACAACCATATAATGATAATAACACCCATAAAATGATAATTATCACACCCAATTTAACTATAACGCTCTGATCATAGTCAGACCAACATTGCTACGACCCGTATTCGCACCGACAC | -3.69 ± 0.97
25 | ACATTTGTGGATACAACCATAAAACGATAATTACACCCATAAATGGATCATTATCACACCCAATTTAACTATAACGCTCTGATCATAGTCAGACCAACATTGCTACGACCCGTATTCGCACCGACAC | 0.737 ± 0.25
26 | ACATTTGTAAAAAAAACCATACGTTGATTTTACGAAACCATACGCTGAAATAAAAACAACCATACCTTGAAATTGCCTCTGATCATAGTCAGACCAACATTGCTACGACCCGTATTCGCACCGACAC | -4.82 ± 1.9
27 | ACATTTGTTGATACAACCCTAAAATGATAATTACACCCATAAATTCATAATTATCACACCCAATTTAACTATAACGCTCTGATCATAGTCAGACCAACATTGCTACGACCCGTATTCGCACCGACAC | -1.75 ± 0.15
28 | ACATTTGTTGATACAACCATAAAGTGATATTTACACCCATAAATTGATATTGCTCACAACCATAAAATGATAATTACTCTGATCATAGTCAGACCAACATTGCTACGACCCGTATTCGCACCGACAC | 0.169 ± 0.17
29 | ACATTTGTGGATACAACCATAAAATGATAATTACACCCATAAATTGATCATTATCACACCCAATTTAACTATAACGCTCTGATCATAGTCAGACCAACATTGCTACGACCCGTATTCGCACCGACAC | 1.89 ± 0.19
30 | ACATTTGTTGATACAACCATAAAATGATAATTACACAAATAAATTGATAATTATCACACCCATAAATTGATATTGCCTCTGATCATAGTCAGACCAACATTGCTACGACCCGTATTCGCACCGACAC | -1.82 ± 0.23
31 | ACATTGGTCGATACAACCATAAAATGATAATTACACCCATAAATTGATAATTATCACACCCAATTTAACTATAACGCTCTGATCATAGTCAGACCAACATTGCTACGACCCGTATTCGCACCGACAC | -5.26 ± 0.85
32 | ACATTTGTTGATACAACCATAAAGTGATATTTACAACCATAAGTTGATATTTTTCACAACCATAAAGTGATATTTACTCTGATCATAGTCAGACCAACATTGCTACGACCCGTATTCGCACCGACAC | 0.0534 ± 0.15
